Laboratory results published in US20030037355.

Experiments:
[1] = test system: 2C7 six-finger zinc finger protein (artificial); conditions: CITED earlier work; cited from earlier work
[2] = target: C7-VP64 three-finger activator (artificial) (UniProt P08046); assay: cell_activity; conditions: tobacco protoplasts, Reporter II pc7rbTATA; Reporter I 10 fold
[3] = test system: SID-2C7 six-finger repressor (artificial); assay: cell_activity; conditions: tobacco protoplasts; almost 2 fold in maize
[4] = test system: e2c six-finger zinc finger protein (artificial); conditions: CITED Beerli et al. 1998; cited from earlier work

Substance: GCGTGGGCGGCGTGGGCG (double strand) [2C7 binding site (six tandem repeats in reporters)]
- Kd [1]: 0.46 nM
- activity (fold activation) [2]: 100
- activity (fold repression) [3]: 5

Substance: e2c target site
- Kd [4]: 0.5 nM
